The text below walks through data of patent US20230046834A1 (BROWN UNIVERSITY, published 2023).

For experiment [1], the target named is T1, recombinant human (rh) CHI3L1 (human, UniProt P36222 22-383).
T1 construct: Recombinant protein; also called human CHI3L1; chitinase 3-like-1
The experiment is described as follows: competitive ELISA.

The target in experiment [2] is T2, recombinant human (rh) CTLA4 (human, UniProt P16410 36-161, limits assumed).
T2 construct: Recombinant protein; also called human CTLA4; CD152
T2 sequence (looked up): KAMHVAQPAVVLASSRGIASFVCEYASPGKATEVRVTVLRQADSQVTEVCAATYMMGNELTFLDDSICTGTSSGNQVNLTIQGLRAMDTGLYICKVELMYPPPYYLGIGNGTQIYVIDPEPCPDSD
Nature of the experiment: competitive ELISA.

T1 sequence (P36222 22-383 limits assumed): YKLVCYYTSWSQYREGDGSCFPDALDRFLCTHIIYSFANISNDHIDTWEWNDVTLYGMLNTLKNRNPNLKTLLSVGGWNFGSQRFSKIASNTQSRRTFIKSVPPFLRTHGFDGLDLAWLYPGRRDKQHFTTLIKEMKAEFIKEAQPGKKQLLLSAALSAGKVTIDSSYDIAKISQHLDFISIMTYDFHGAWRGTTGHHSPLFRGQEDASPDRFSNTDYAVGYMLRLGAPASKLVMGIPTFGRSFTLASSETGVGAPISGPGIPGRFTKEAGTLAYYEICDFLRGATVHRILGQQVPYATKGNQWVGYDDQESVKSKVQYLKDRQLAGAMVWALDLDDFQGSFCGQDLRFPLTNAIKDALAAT

B1: CHI3L1-LC-CTLA4 bispecific antibody (ScFv-CTLA4 attached to the light chain of the anti-human CHI3L1 antibody FRG) (bispecific antibody)
chain 1: QVQLQQSGAELMKPGASVKISCRTTGYTFSSYWIEWVKQRPGHGLEWIGEILPGSGSTNCNEKFKGKATFTADTSSNTAYMQLSSLTSEDSAVYYCVRSDDYYDYWGQGTTLTVSS
chain 2: DVLMTQTPLSLPVSLGDQASISCRSSQTIVHSNGNTYLEWYLQKPGQSPKLLIYKVSNRFSGVPDRFSGSGSGTDFTLKISRVEAEDLGVYYCFQGSHVPPTFGGGTKLEIKVEGGSGGSGGSGGSGGVDQVQLVQSGAEVVQPGRSLRLSCAASGFTFSSYTMHWVRQAPGKGLEWVTFISYDGNNKYYADSVKGRFTISRDNSKNTLYLQMNSLRSEDTAVYYCARTGWLGPFDYWGQGTLVTVSSGGGGSGGGGSGGGGSGGGGSEIVLTQSPATLSLSPGERATLSCRASQSVGSSYLAWYQQKPGQAPRLLIYGAFSRATGIPARFSGSGSGTDFTLTISSLEPEDFAVYYCQQYGSSPWTFGQGTKVEIK
Regarding B1, in experiment [1], the Kd was approximately 1 nM and the “limit of detection (LOD)” value came to 2 ng/mL. Further, in experiment [2], the equilibrium dissociation constant (Kd) is approximately 1 nM and the “limit of detection (LOD)” value came to 2 ng/mL.

B2: anti-human CHI3L1 antibody (called "CHI3L1" or "FRG") (antibody, V domains shown)
VH: QVQLQQSGAELMKPGASVKISCRTTGYTFSSYWIEWVKQRPGHGLEWIGEILPGSGSTNCNEKFKGKATFTADTSSNTAYMQLSSLTSEDSAVYYCVRSDDYYDYWGQGTTLTVSS
VL: DVLMTQTPLSLPVSLGDQASISCRSSQTIVHSNGNTYLEWYLQKPGQSPKLLIYKVSNRFSGVPDRFSGSGSGTDFTLKISRVEAEDLGVYYCFQGSHVPPTFGGGTKLEIK
For the molecule B2, in experiment [1], the dissociation constant Kd is approximately 1 nM and the “limit of detection (LOD)” value was 2 ng/mL.

B3: CHI3L1-HC-CTLA4 bispecific antibody (ScFv-CTLA4 attached to the heavy chain of the anti-human CHI3L1 antibody FRG) (bispecific antibody)
chain 1: QVQLQQSGAELMKPGASVKISCRTTGYTFSSYWIEWVKQRPGHGLEWIGEILPGSGSTNCNEKFKGKATFTADTSSNTAYMQLSSLTSEDSAVYYCVRSDDYYDYWGQGTTLTVSSVEGGSGGSGGSGGSGGVDQVQLVQSGAEVVQPGRSLRLSCAASGFTFSSYTMHWVRQAPGKGLEWVTFISYDGNNKYYADSVKGRFTISRDNSKNTLYLQMNSLRSEDTAVYYCARTGWLGPFDYWGQGTLVTVSSGGGGSGGGGSGGGGSGGGGSEIVLTQSPATLSLSPGERATLSCRASQSVGSSYLAWYQQKPGQAPRLLIYGAFSRATGIPARFSGSGSGTDFTLTISSLEPEDFAVYYCQQYGSSPWTFGQGTKVEIK
chain 2: DVLMTQTPLSLPVSLGDQASISCRSSQTIVHSNGNTYLEWYLQKPGQSPKLLIYKVSNRFSGVPDRFSGSGSGTDFTLKISRVEAEDLGVYYCFQGSHVPPTFGGGTKLEIK
Regarding B3, in experiment [1], the dissociation constant (Kd) is approximately 1 nM and the “limit of detection (LOD)” value came to 2 ng/mL. Moreover, in experiment [2], the Kd is approximately 1 nM and the “limit of detection (LOD)” value is 2 ng/mL.
